In paper PMC5391581:

Columns and labels:
[1] = target: SV40 LT 131-627 cL557A (Simian Virus 40); experiment: SEC; Superdex 200 10/300 GL; 250 μg LT (0.8 μg/μL) incubated with 4 mM ATP and 1 mM MgCl2; 25 mM Tris pH 8.0, 250 mM NaCl, 0.5 mM TCEP; percent hexamer from peak areas; monomer to hexamer
[2] = target: SV40 LT 131-627 cS430T (Simian Virus 40); experiment: as above
[3] = target: SV40 LT 131-627 cS430T (Simian Virus 40); experiment: SEC; Superdex 200 10/300 GL; 250 μg LT (0.8 μg/μL) incubated with 4 mM UTP and 1 mM MgCl2; 25 mM Tris pH 8.0, 250 mM NaCl, 0.5 mM TCEP; percent hexamer from peak areas; monomer to hexamer
[4] = target: SV40 LT 131-627 cW393A (Simian Virus 40); experiment: SEC; Superdex 200 10/300 GL; 250 μg LT (0.8 μg/μL) incubated with 4 mM ATP and 1 mM MgCl2; 25 mM Tris pH 8.0, 250 mM NaCl, 0.5 mM TCEP; percent hexamer from peak areas; monomer to hexamer
[5] = target: SV40 LT 131-627 tK419A (Simian Virus 40); experiment: SEC; Superdex 200 10/300 GL; 250 μg LT (0.8 μg/μL) incubated with 4 mM TTP and 1 mM MgCl2; 25 mM Tris pH 8.0, 250 mM NaCl, 0.5 mM TCEP; percent hexamer from peak areas; monomer to hexamer
[6] = target: SV40 LT 131-627 tK419A (Simian Virus 40); experiment: SEC; Superdex 200 10/300 GL; 250 μg LT (0.8 μg/μL) incubated with 4 mM ATP and 1 mM MgCl2; 25 mM Tris pH 8.0, 250 mM NaCl, 0.5 mM TCEP; percent hexamer from peak areas; monomer to hexamer
[7] = target: SV40 Large Tumor Antigen (LT) 131-627, wild type (Simian Virus 40); experiment: as above
[8] = target: SV40 Large Tumor Antigen (LT) 131-627, wild type (Simian Virus 40); experiment: SEC; Superdex 200 10/300 GL; 250 μg LT (0.8 μg/μL) incubated with 4 mM UTP and 1 mM MgCl2; 25 mM Tris pH 8.0, 250 mM NaCl, 0.5 mM TCEP; percent hexamer from peak areas; monomer to hexamer

Q: How did the percent hexamer formed (ATP + Mg++) [1] turn out when “SV40 LT 131-627 cL557A (domain or fragment)” was run?
A: The percent hexamer formed (ATP + Mg++) was 99.9%.

Q: What about the stoichiometry N [1] of the same substance?
A: The stoichiometry N was 6.

Q: What does the source list for “SV40 LT 131-627 cS430T (domain or fragment)”?
A: stoichiometry N [2]: 6; percent hexamer formed (UTP + Mg++) [3]: 84.6%

Q: What does the source list for “SV40 LT 131-627 cW393A (domain or fragment)”?
A: percent hexamer formed (ATP + Mg++) [4]: 97.9%; stoichiometry N [4]: 6

Q: How did the decrease in hexamer formation compared to WT (TTP + Mg++) [5] turn out when “SV40 LT 131-627 tK419A (domain or fragment)” was run?
A: The decrease in hexamer formation compared to WT (TTP + Mg++) was 25.2%.

Q: What about the percent hexamer formed (ATP + Mg++) [6] of the same substance?
A: Its percent hexamer formed (ATP + Mg++) is 83.9%.

Q: What about the stoichiometry N [6] of the same substance?
A: The stoichiometry N was 6.

Q: Which results are given for “SV40 Large Tumor Antigen (LT) 131-627, wild type (domain or fragment)”?
A: stoichiometry N [7]: 6; percent hexamer formed (UTP + Mg++) [8]: 69.4%
